Results: publication PMC10349087 (Nature Communications, 2023)

B1: NIV-13 Fab (Fab, V domains shown)
VH: EVQLLESGGGLVQPGGSLRLSCAASGFTFSRYALSWVRQAPGKGLEWVSAISGAAITTYYADSVKGRFTISRDDSRNTLFMQMDSLRAEDTAVYYCAKGDYYDSSGYLAEYFPHWGQGTLVTVSS
VL: SYELTQPPSVSVSPGQTARITCFADALPKQHAYWYQQKAGQAPVLVIFKDTERPSGIPKRFSGSRSGATVTLTISGVQAEDEADYYCQSTDISGVLFGGGTKLTVL
B2: NIV-10 Fab (Fab, V domains shown)
VH: EVQLVESGGGLVQPGGSLRLSCAASGFTFYSYWMTWVRQAPGKGLEWVANIKHDESESHYVDSVRGRFTISRDNAKNSVYLQMKGLRAEDTAVYYCARDGGYNILTAYYHAPSYWGQGTLVTVSS
VL: QSALTQPASVSGSPGQSITISCTGTSSDVGGYNFVSWYRQYPGKAPQLMIYDVSRRPSGDSDRFSGSKSGNTASLTISGLQAEDEAEYHCSSYTGRSPYVVFGGGTKVTVL
B3: NIV-8 Fab (Fab, V domains shown)
VH: EVQLVESGGGVVQPGRSLRLSCAASGFKFSKFAMHWVRQAPGKGPEWVAVISYDGNQYHSADSVKGRFTISRDNSFNTLYLQMNSLGPEDTAVYYCARDGPDTSGYYANIYFDFWGQGTLVTVSS
VL: QSVLTQPPSVSGAPGQRVTISCTGSSSNIGAGYDVHWYQQLPGRAPKLLIFDNNNRPSGVPDRFSGSKSGTSASLAITGLQTEDEAYYYCQSYDNSLILAVFGGGTKVTVL
B4: NIV-11 Fab (Fab, V domains shown)
VH: QLVQSGPEVKKPGTSVKVSCKASGFTFYYSAVQWVRQARGQRLEWLGWMAVGSGKANYAQKFQERLTLTRDMSTSTAYMELSSLRSEDTAVYYCAAPNCTGGSCYDGFNLWGQGTVVTVSS
VL: EIVLTQSPGTLSLSPGDRAILSCRASQTVNSNYLAWYQQKPGQAPRLLIYGTSSRATGIPDRFSGSGSGTDFTLTISRLEPEDFAVYYCQQYGSSPWLFGQGTKVEIK

molecular target: SARS-CoV-2 spike receptor-binding domain, ancestral (amino acids 331-529), biotinylated (SARS-CoV-2, ancestral (Wuhan), UniProt P0DTC2, biotin (RBD expression vector co-expressed with BirA-Flag, 100 μM biotin added)); assay: BLI; conditions: both partners purified

Question: Which results are given for B1?
Answer: Kd: 7.33 pM; koff: 1.19e-06 s⁻¹; kon: 163000 M⁻¹ s⁻¹

Question: With B2 as the binder, how does the Kd read?
Answer: 5.42 pM

Question: What about the koff of the same binder?
Answer: 1.24e-06 s⁻¹

Question: What about the kon of the same binder?
Answer: 223000 M⁻¹ s⁻¹

Question: B3 was tested. Which Kd did it give?
Answer: 10.9 pM

Question: And the koff?
Answer: 1.15e-06 s⁻¹

Question: What about the kon of the same binder?
Answer: 106000 M⁻¹ s⁻¹

Question: Which results are given for B4?
Answer: Kd: 20.8 pM; koff: 1.12e-06 s⁻¹; kon: 53600 M⁻¹ s⁻¹
